# Data reported in the nanobody polyreactivity screen of Harvey et al. (2022).
# Assay: yeast display, Sf9 membrane polyspecificity reagent, FACS + sequencing; frameworks hold sequencing errors
# Procedure, shortened: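 Sorting gates, low and high (top ~1%), were placed on anti-HA fluorescence to track expression and on streptavidin fluorescence to track reagent binding. A clone's polyreactivity label is taken from the gate it came out of. The reagent was 10% biotinylated, detergent-solubilized Sf9 membrane, applied for 1 hour at 4 °C to galactose-induced yeast display cells.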
row,Sequence,polyreactivity (PSR sort gate)
1,QVQLVESGGGLVQAGGSLRLSCAPSGSIFVTYAMGWYRQAPGKERELVAAISTSGGSTYADSVKGRFTISRVNAKNTVYLQMNSLKPEDTAVYYCNADDPGYAVPWYWFKYDYWGQGTQVTVSS,low polyreactivity
2,QVQLVESGGGLVQAGGSLRLSCAPSGSTFGDNAMGWYRQAPGKERELVAAISSGGGSTYYADSVKGRFTISRDNAKNTVYLQMNSLKPEDTAVYYCAADGTLTLYRYILDYWGQGTQVTVSS,low polyreactivity
3,QVQLVESGGGLVQAGGSLRLSCAPSGSTFLDNAMGLYRQAPGKESELVAAISRGGSTNYADSVKWLFTSSRDNAKNTVYLQMNSLKPEDTAVYYCAARVNYASRYWYYIIRGTIDYYWGQGTQVTVSS,low polyreactivity
4,QVQLVESGGGLVQAGGSLRLSCAPSGSTFPLYAMGWYRQAHGNEREFVAAIRWIGGSTYYADSVKGRFTISRDNAKNTVYLQMNSLKPEDTAVYYCAADYVVSAFDYWGQGTQVTVSS,low polyreactivity
5,QVQLVESGGGLVQAGGSLRLSCAPSGSTFQYYAMGWYRQAPGKESELVATITRRGDSTYYADSVKGRFTISRDSAKNTVYFQMNSLKPEDTAVYYCATRYWRSGYDWPYGSWGQGTQETVSS,high polyreactivity
6,QVQLVESGGGLVQAGGSLRLSCAPSGTIFYSYAMGWYRQAPGKERELVAAISQRGGSTYYADSVKGRFTISRDNAKNTVYLQMNSLKPEDTAVYYCNAVYRRAQFLYGYDYWGQGTQVTVSS,high polyreactivity
7,QVQLVESGGGLVQAGGSLRLSCAPSGYTFIFNVMGWYRQAPGKERELVAAISYSGGSTNYADSVKGRYTTSRDNAKNTVYFQMNSLKPEDTAVYYCNARTVSRNGYQDDYWGQGTQVTVSS,low polyreactivity
8,QVQLVESGGGLVQAGGSLRLSCAPTGSIFSVYAMGWYRHAPGKESELVATISSSGSTNYADSVKGRFTISRDNAKNTVYLQMNSLKPEDTAVYYCNVVGEYTQSDYSGYDYWGQGTQVTLSS,low polyreactivity
9,QVQLVESGGGLVQAGGSLRLSCASSGFIFGRNAMGWYRQAPGKERELVAGISSRGGRTYYADSVKGRFTISRDNAKITVYLEMNSLKPEDTAEYYCAAAGLTDYVRYDYWGQGTQVTVSS,high polyreactivity
10,QVQLVESGGGLVQAGGSLRLSCASSGFIFSSYAMGWYRQAPGKERELVARISLSGGSTFYADSVKGRFTISRDNAKNTVYFQMNSLKPEDTAVYYCAARDFSTHFSPMDYWGQGTQVTVSS,low polyreactivity
11,QVQLVESGGGLVQAGGSLRLSCASSGFIFSTSALGWYRQAPGKERELVAAISRTGGSTYYADSDKGRFTISRDNANNTVYLQMNSLKPEDTAVYYCAAAIYSFWYEYNYWGHGTQVTVSS,high polyreactivity
12,QVQLVESGGGLVQAGGSLRLSCASSGFSFLSYTMGWYRQAPGKERELVAAITSGGSTYYADSVKGRFTISRDNAKNTVYLQMNSLKPEDTAVYYCAVTYRWHTFIYDYWGQGTQVTVSS,low polyreactivity
13,QVQLVESGGGLVQAGGSLRLSCASSGFTFRGYAIGWYRQAPGKERELVAAITGGGSTNYADSVKGRFTISRDNAKNTVYLQMNSLKPEDTAVYYCAADASWALFAWAHYDYWGEGTQVTVSS,low polyreactivity
14,QVQLVESGGGLVQAGGSLRLSCASSGFTFRLNAMGWYRQAPGKERELVAAITRSGGNTYYADSVKGRFTISRDNAKNTVYLQMNSLKPEDTAVYYCAVRQLDRRSPKYNYWGQGTQVTVSS,high polyreactivity
15,QVQLVESGGGLVQAGGSLRLSCASSGFTFSVYAMGWYREAPGKERELVAAITWRGGSTYYADSVKGRFTISRDNAKNTVYLQMNSLKPEDSAVYYCAVLYPKYGKRYGYWGQGTQVTVSS,high polyreactivity
16,QVQLVESGGGLVQAGGSLRLSCASSGGTFPYYAMGWYRQAPGKERELVAAINYSCGSTYYADSVKGRFTISRDNAQYTVYLQMTSLKPEDTAVFYCAARYQFYRYDSTYSYWGQGTQVTVSS,high polyreactivity
17,QVQLVESGGGLVQAGGSLRLSCASSGIIFLTYAMGWYRQAPGKERELVAAINSTGSTNYADSVKGRFTISRDNAKYSVYLQMNSLKPDDTAVYYCAAEGLPYVRVFDFVSRYDYWGQGTQVTVSS,low polyreactivity
18,QVQLVESGGGLVQAGGSLRLSCASSGIIFNVYAMGWYRQAPGKERELVAAISSTSSTYADSVKGRFTISRDNAKNTVYLQMNSLKPEDTAVYYCNTDYSDGYPAFAYWGQGTQVTVSS,low polyreactivity
19,QVQLVESGGGLVQAGGSLRLSCASSGIIFVYYAMGWYRQAPGKERELVAVITESGVSTYYADSVKGRFTISRDNAKNTVYLQMNSLKPEDTAVYYCNRDYPYIWHKGARYWHENDYWGQGTQVTVSS,low polyreactivity
20,QVQLVESGGGLVQAGGSLRLSCASSGIIFYKYAMGWYRQAPGKERELVAVISRGGGSTYYADSVKGRFTISRDNAKNTVYLQMNSLKPEDTAVYYCAADPRVTRSYTYDYWVQGTQVTVSS,high polyreactivity
21,QVQLVESGGGLVQAGGSLRLSCASSGLIFAYYGMVWYRQAPGKEREFVAAISWRGGSTYYADSVKGRFTISRDNAKNTVYLQMNSLKPEDTAVYYCAARPLYGSARTNYGYWGQGTQVSVSS,high polyreactivity

row,Sequence,polyreactivity (PSR sort gate)
1,QVQLVESGGGLVQAGGSLRLSCASSGLIFVVYAMGWYRQAPGKERELVAAISTSGDRTYYADSVKGRFTISRDNAKNTVYLLMNSLKPEDTAVYYCAAGRRKVPYCREYYYWGQVTQVTVSS,high polyreactivity
2,QVQLVESGGGLVQAGGSLRLSCASSGLIFYDNMGWYRQAPGKETELVAAISSSGGSTSYADSVKGRFTISRDNAKNTVYLQMNSLKPEDTAVYYCAADSYPAYLGFFGFDYWGQGTQVTVSS,low polyreactivity
3,QVQLVESGGGLVQAGGSLRLSCASSGLTFAAYAMGWSRQAPGKERELVAAISRRGGSTYYADSVKGRFTISRDNAKNTVYLQMNSLKPEDTAVYYCAAENEVYWYDVEYWGQGTQVTVSS,high polyreactivity
4,QVQLVESGGGLVQAGGSLRLSCASSGLTFYPYAMGWYRQAPGKERELVAAISKSGGRTSYADSVKGRFTISRDNAKNTVYLQMNSLKPEDTAVYYCNARSGTFGYSTYGYWGQGTQETVSS,high polyreactivity
5,QVQLVESGGGLVQAGGSLRLSCASSGNTFVAYAMGWYRQAPGKERELVAGITRGGTTYYADSVKGRFTISRDNAKNTVYLQMNSLKPEDTAVYYCAARLGYRYNYWGQGTQVTVSS,high polyreactivity
6,QVQLVESGGGLVQAGGSLRLSCASSGRIFGIYAMGWYRQAPGKESELVARITGGGSTNYADSVKGRFTISRDNAKNTVYLQMNSLKPEDTAVYYCAATVRRIVGNITRYDYWGQGTQVTVSS,low polyreactivity
7,QVQLVESGGGLVQAGGSLRLSCASSGRIFGLYAMGWYRHAPGKERELVAAITLSGDGTDYADSVKGRFTISRDNAKNTVYLQMNSLKPEDTAVYYCAKVGQYWWNMDYWGQGTQVTVSS,low polyreactivity
8,QVQLVESGGGLVQAGGSLRLSCASSGRIFGVYAMGWYRQAPGKERELVAAITRGASTYYADSVKGRFTISRDNAKNTVYLQMNSLKPEDTAVYYCAVSQHRGIYRKYDYWGQGTQVTVSS,high polyreactivity
9,QVQLVESGGGLVQAGGSLRLSCASSGRIFNGNTMGWYRQAPGKERELVAGITGSSGSTYYADSVKGRFTISRDNANNSVYLPMNSLKPEDTGVYYCAAGRRYRCVGYGYWGQGTQVTVSS,high polyreactivity
10,QVQLVESGGGLVQAGGSLRLSCASSGRIFQFYAMGWYRQEPGKERELVASISWSGGRTYYADSVKGRFTISRDNAKNTVYLQMNSLNPEDTAVYYCAADYYDYYYWGQGTQVTVSS,high polyreactivity
11,QVQLVESGGGLVQAGGSLRLSCASSGRIFRGYAKGGYRQAPGKERELVADISSGASTNYADSVKGRFTISRDNAKNSVYLQMNRLKPEDTAVYYCAASIYAALIGGPGYDYWGQGTQVTVSS,low polyreactivity
12,QVQLVESGGGLVQAGGSLRLSCASSGRIFRSYAMGWYRQAPGKERELVAAISSGGGSTYYADSVKGRFTISRDNAKNTVYLQMNSLKPEDTAVYYCNTDFYYDDVSQAHDYWGQGTQVTVSS,high polyreactivity
13,QVQLVESGGGLVQAGGSLRLSCASSGRIFYTYAMGWYRQAPGKERELVAAIRYSGGSTYYADSVKGRFTISRDNAMNTVYLQINSLKPEDTAVYYCAATVYTKQFDYWGQGTQVTVSS,high polyreactivity
14,QVQLVESGGGLVQAGGSLRLSCASSGRIIRRNAMGWYRQAPGKERELVASISQGGSTYYADSVKGRFTISRDNAKNTVYLQMNSLKPEDTAVYYCAATLSYYVGVRYDYWGQGTQVTVSS,high polyreactivity
15,QVQLVESGGGLVQAGGSLRLSCASSGRTFAWYAMGWYRQAPGKERELVAAISNVGSTYYADSVKGRFTISRDNAKNTVYLQMNSLKPEDTAVYYCNADAVSTDGREYWGQGTQVTVSS,low polyreactivity
16,QVQLVESGGGLVQAGGSLRLSCASSGRTFQYYAMGWYRQAPGKERELVAAISSRGGSTYYADSVKGRFTISRDNAKNTVYLQMNSLKPEDTAVYYCAAYVLPRQRVRSDYWGQGTQVTVSS,high polyreactivity
17,QVQLVESGGGLVQAGGSLRLSCASSGRTFRYNAKGWYRQAPGKERELVAAISWSGGGTYYSDSVKGRFTISRDNAKNTVYLQMNSLKPEDTAVYYCAAEEQIPLTNNSKYYYWGQGTQVTVSS,low polyreactivity
18,QVQLVESGGGLVQAGGSLRLSCASSGRTFYLNAMGWYRQAPGKERELVAAISKRGGSTYYADSVKGRFTISRDNAKNTVYLQMNSLKPEDTAVYYCAKGFSFYSPRYDYWGQGTQVTVSS,high polyreactivity
19,QVQLVESGGGLVQAGGSLRLSCASSGRTLRRYAMGWYRQAPGKERELVAAISRSGSSTYADSVKGRFTISRDNAKNTVYLQMNSLKPEDTAVYYCNAYQPRYVYWGQGTQVTVSS,high polyreactivity
20,QVQLVESGGGLVQAGGSLRLSCASSGRTYTLNAMGWYRQAPGKERELVAAIRRGGSTYYADSVKGRFTISRDNAKNTVYLQMNSLKPEDTAVYYCAARGTGYHGYGYWGQGTQVTVSS,high polyreactivity
